Here are results for six molecules from US20040171116A1.

The Kd is the equilibrium constant for the complex coming apart. Low values mean a tighter complex, high ones a looser complex. As a reminder, the kon is the second-order rate constant of association. Low readings indicate slower complex formation, high ones faster complex formation. A word on the koff: it is the first-order rate constant of dissociation. The low end stands for slow dissociation, the high end for fast dissociation.

Experiment [1] concerns the target mutated rMal d 1 (2781) (apple) (UniProt Q40280). As to the kind of experiment: Biacore SPR, BV16 on the chip, antigen injected at 5 concentrations.
Experiment [2] concerns the target rBet v 1.2801 (database accession number: Z80104) (birch). Described as above.
Experiment [3] has as its target receptor-bound IgE on basophils of birch pollen allergic patients. As to the kind of experiment: cell-based or functional assay.
Experiment [4] addresses pooled IgE serum from birch allergic patients (FIG. 8A). As to the kind of experiment: solid phase IgE inhibition assay (ADVIA Centaur), reference rBet v 1.2801.
Experiment [5] shares this target. Description: solid phase IgE inhibition assay (ADVIA Centaur), inhibitor at 3000 ng/test, competitor biotinylated rBet v 1.2801.

In the case of “monoclonal mouse IgG antibody BV16 raised against nBet v 1”, in experiment [1], the Kd was found to be 0.27 nM and the kon stood at 120000 M⁻¹ s⁻¹. In experiment [2], this molecule had a Kd of 0.24 nM, a koff of 2.5e-05 s⁻¹ and a kon of 100000 M⁻¹ s⁻¹.

B1: mutated rMal d 1 (2781), Q40280 2-159 (protein)
chain: GVYTYENEYTSEIPPPRLFKAFVLDADNLIPKIAPQAIKHAENIEGNGGPGTIKKITFGEGSQYKYVKHRIDSVDHANYSYAYTLIEGDALTDTIEKVSYETKLVASGSGSIIKSISHYHTKGDVEIMEEHVKAGKEKAHGLFKLIESYLKDHPDAYN
Take B1: the shift of the histamine release curve toward higher antigen concentrations compared to rBet v 1.2801 in experiment [3] turned out to be 2 fold.

B2: mutated rMal d 1 (2760), Q40280 2-159 (protein)
chain: GVYTYENEYTSEIPPPRLFKAFVLDADTLIPQIAPQAIKHAEILSGDGGPGTIKKITFGEGSQYGYVKHKIDSVDEANYSYAYTLIEGDALTDTIEKVSYETKLVASGSGSIIKSISHYHTKGDVEIMEEHVKAGKEKAHGLFKLIESYLKDHPDAYN
In experiment [3], B2 displayed a concentration required to trigger histamine release in patient (p) compared to rBet v 1.2801 of 100 fold.

B3: mutated rMal d 1 (2781) (protein)
chain: GVYTYENEYTSEIPPPRLFKAFVLDADNLIPKIAPQAIKHAENIEGNGGPGTIKKITFGEGSQYKYVKHRIDSVDHANYSYAYTLIEGDALTDTIEKVSYETKLVASGSGSIIKSISHYHTKGDVEIMEEHVKAGKEKAHGLFKLIESYLKDHPDAYN
On to B3, for which the fold higher antigen concentration than rBet v 1.2801 to reach the same IgE inhibition (39%) in experiment [4] came to 1000 fold. In experiment [5], the percent inhibition of binding of serum-IgE to biotinylated rBet v 1.2801 was 39%.

B4: mutated rMal d 1 (2762), Q40280 2-159 (protein)
chain: GVYTYENEYTSVIPPARLFKAFVLDADNLIPKIAPQAIKHAEILEGDGGPGTIKKITFGEGSQYGYVKHKIDSVDEANYSYAYTLIEGDALTDTIEKVSYETKLVATPDGGSIIKSISHYHTKGDVEIMEEHVKAGKEKAHGLFKLIESYLLDHSDAYN
B4: in experiment [3], the shift of the histamine release curve toward higher antigen concentrations compared to rBet v 1.2801 stood at 20 fold.

B5: mutated rMal d 1 (2762) (protein)
chain: GVYTYENEYTSVIPPARLFKAFVLDADNLIPKIAPQAIKHAEILEGDGGPGTIKKITFGEGSQYGYVKHKIDSVDEANYSYAYTLIEGDALTDTIEKVSYETKLVATPDGGSIIKSISHYHTKGDVEIMEEHVKAGKEKAHGLFKLIESYLLDHSDAYN
For B5, the fold higher antigen concentration than rBet v 1.2801 to reach the same IgE inhibition (62%) in experiment [4] worked out at 500 fold. The percent inhibition of binding of serum-IgE to biotinylated rBet v 1.2801 in experiment [5] worked out at 62%.
